19 molecules from patent publication US20200123233A1 can be followed below.

To fix the notation:
B1: IV133 (VHH)
VHH: QVQLQQSGGGLVQPGGSLRLSCAASSSGFSFNPMGWYRQAPGKQRELVATMTSGGTTNYADSVKGRFTISRDNAKTTVYLQMNSLKPEDTAVYYCNARGPRRATTGWITDDYWGQGTQVTVSS
B2: IV156 (VHH)
VHH: B1 VHH with S26R, M51I, R71T, Y79F, A97G, A103G, T105A, I108F
B3: IV157 (VHH)
VHH: B1 VHH with S26R, G28D, F29I, M51I, T52S, S53N, R71Q, A97G, R102Y, I108Y
B4: IV146 (VHH)
VHH: QVQLQQSGGGLVQAGGSLRLSCAASGSSFSINAMGWYRQAPGKQRELVAAISSGGSANYADSVKGRFTISRDNAKNTVYLQMNSLKPEDTAVYYCNAGSRFNPFGSAYDYWGQGTQVTVSS
B5: IV131 (VHH)
VHH: QVQLQQSGGGLVQAGGSLRLSCAASGSGFSFNPMGWYRQAPGKQRELVASITSGGTTNYVDSVKGRFTISRGNAKNTVYLQMNSLKPEDTAVYYCAAEGPRRRGSTWYTDNYWGQGTQVTVSS
B6: IV154 (VHH)
VHH: QVQLQESGGGLVQAGGSLRLSCAASGRPFSSAAMGWFRQAPGKEREFVSAISYTGDVTRYADSVKGRFTISRDNTRNTLTLEMNSLKPEDTAVYYCAARTYAGVRAHTYDYDYWGQGTQVTVSS
B7: IV155 (VHH)
VHH: QVQLQESGGGLVQAGGSLRLSCAASGRSLSRYAMGWFRQAPGKEREFVATKTSGGVTYYGASVKGRFTISRDNAKNMVYLQMNSLNPEDTAIYYCAAGTDAIFKPWMLPDYWGQGTQVTVSG
B8: IV144 (VHH)
VHH: QVQLQQSGGGLVQAGGSLRLSCAASGNIISFNPMGWHRQAPGKQRELVASITSGGSISYVDSVKGRFTISRDSAKNTIYLQMNSLKPEDTAVYFCAGEGPRRRGSTWYTDTYWGQGTQVTVSS
B9: IV26 (yeast-produced NANOBODY (VHH sequence)) (VHH)
VHH: QVQLQESGGGLVRTGDSLRLSCAASGRTFNGYAMAWFRQAPGKGREFVAAVTWSSGTTNYAGSVKDRFTVSRDNANNTMYLQMNSLKPEDTAVYICGAASGYRSTDRLSDPAWTNYWGQGTQVTVSS
B10: IV21 (yeast-produced NANOBODY (VHH sequence)) (VHH)
VHH: QVQLQQSGGGLVQAGGFLRLSCAASGRSFNTYAMGWFRQAPGKEREFVAGITRSGTATDYIDSVKGRFTISRDNARDTVYLQMNRLNPEDSAVYYCAAHANYDRMINSEYKYWGQGTQVTVSS
B11: IV37 (yeast-produced NANOBODY (VHH sequence)) (VHH)
VHH: QVQLQESGGGLVQAGDSLRLSCAAPGRSFSGGAMSWFRQVPGKEREFVAAIRWSGGGIRYADSVKGRFTISRDNAKNTFYLQMNSLKPEDTAVYYCAIDPRADLVATMTSIRYWGQGTQVTVSS
B12: IV29 (yeast-produced NANOBODY (VHH sequence)) (VHH)
VHH: QVQLQESGGGLVQAGGSLRLSCVASGRTLDNYAMGWFRQAPGAEREFVGAISANGEDTQYTESVQGRFTISKDNAKSTVYLDMNSLKPEDTAVYYCAADRKTLTYYTSRLRSRYEYWGQGTQVTVSS
B13: IV1 (yeast-produced NANOBODY (VHH sequence)) (VHH)
VHH: QVQLQESGGGLVETGGSLRLSCAASGRTFGGYALAWFRQAPGKGREFVAAVTWTSGTTNYAGSVKDRFTVSRDNAGNTMYLQMNSLRPEDTAVYICGAASGYRSPDRLSEPNWVNYWGQGTQVTVSS
B14: LG214E8 (VHH)
VHH: EVQLVESGGGSVQAGGSLRLSCAASGGTFNPYVMAWFRQAPGNEREFVARIRWSGGDAYYDDSVKGRFAITRDAAKNTVHLQMNSLKPEDTAVYYCAAATYGYGSYTYGGSYDLWGQGTQVTVSS
B15: LG213E6 (VHH)
VHH: EVQLVESGGGLVQAGASLRLSCAASGSTLSRYGVGWFRQAPGKERELVASVDWSGSRTYYADSVKGRFTISRDNAKNTGYLQMNSLKPDDTAVYYCAADSSVVPGIEKYDDWGLGTQVTVSS
B16: LG213H7 (VHH)
VHH: EVQLVESGGGLVQAGGSLRLSCAASGRTLSSYRMGWFRQAPGKEREFISTISWNGRSTYYADSVKGRFIFSEDNAKNTVYLQMNSLKPEDTAVYYCAAALIGGYYSDVDAWSYWGPGTQVTVSS
B17: LG212B2 (VHH)
VHH: EMQLVESGGGLVQAGDSLRLSCAASGDTFSWYVMAWFRQAPGKEREFVTWINRSGASTYYADSVKGRFTIFRDNDKNTVYLQMNSLKPEDTAVYYCAAGGFYGLRTTEERYDTWGQGTQVTVSS
B18: LG212G2 (VHH)
VHH: EVQLVESGGGLVQPGGSLRLSCAASGFTFGSHDMSWVRQAPGKGSEWVSGIKSGGGSTLYADSVKGRFAISRDNAKNTLYLQMNSLKPEDTAVYYCATDLYGSTWYPGEDRGTQVTVSS
B19: LG214H10 (VHH)
VHH: B14 VHH

Numbering of substitutions follows the chain as printed. Values joined by “and” are separate entries in the source; they are usually repeats but may differ in a detail not shown here. Equal values may be shown once.

The target of one experiment is recombinant his-tagged HA0 trimer from H5N1 strain A/Anhui/1/2005 (Abcam, Cat. No. ab53938) (influenza A virus A/Anhui/1/2005 (H5N1)). The experiment in a line: ELISA on recombinant haemagglutinin, detection with rabbit anti-NANOBODY serum. (In an ELISA, binding on a coated surface is turned into a signal by an enzyme label.)
Regarding B1, the ELISA titer (NANOBODY concentration giving extinction 1) came out at 39.1 ng/mL.

For B2, the ELISA titer (NANOBODY concentration giving extinction 1) was determined as 51.9 ng/mL.

In the case of B3, the ELISA titer (NANOBODY concentration giving extinction 1) was 30.6 ng/mL.

In the case of B4, the ELISA titer (NANOBODY concentration giving extinction 1) was determined as 162 ng/mL.

As for B5, the ELISA titer (NANOBODY concentration giving extinction 1) amounted to 36.8 ng/mL.

Consider B6, for which the ELISA titer (NANOBODY concentration giving extinction 1) was > 10000 ng/mL.

As to B7, the ELISA titer (NANOBODY concentration giving extinction 1) is > 10000 ng/mL.

As to B8, the ELISA titer (NANOBODY concentration giving extinction 1) worked out at 33.1 ng/mL.

The target of the next experiment is recombinant his6-tagged haemagglutinin HA1, Abcam ab53875. Described as above.
As to B1, the ELISA titer (NANOBODY concentration giving extinction 1) was 32.5 ng/mL.

Consider B2, for which the ELISA titer (NANOBODY concentration giving extinction 1) came to 33 ng/mL.

For the molecule B3, the ELISA titer (NANOBODY concentration giving extinction 1) was determined as 9.9 ng/mL.

As to B4, the ELISA titer (NANOBODY concentration giving extinction 1) is 62.9 ng/mL.

Consider B5, for which the ELISA titer (NANOBODY concentration giving extinction 1) is 32 ng/mL.

B6: the ELISA titer (NANOBODY concentration giving extinction 1) was > 10000 ng/mL.

Turning to B7, the ELISA titer (NANOBODY concentration giving extinction 1) was > 10000 ng/mL.

B8: the ELISA titer (NANOBODY concentration giving extinction 1) came to 34.8 ng/mL.

A further experiment has as its target Recombinant his-tagged HA1 from H7N7 strain A/Chicken/Netherlands/01/03 (Abcam Cat. No. ab61286) (Influenza A virus A/Chicken/Netherlands/01/03 (H7N7)).
Experiment: not given
On to B9, for which the ELISA titer (NANOBODY concentration giving extinction 1) came to 80.6 ng/mL.

With B10, the ELISA titer (NANOBODY concentration giving extinction 1) is 69 ng/mL.

With B11, the ELISA titer (NANOBODY concentration giving extinction 1) was 31.4 ng/mL.

Turning to B12, the ELISA titer (NANOBODY concentration giving extinction 1) is 7.2 ng/mL.

On to B13, for which the ELISA titer (NANOBODY concentration giving extinction 1) is 62.2 ng/mL.

For a further experiment, the target named is Rabies virus glycoprotein G, ERA strain (attenuated vaccine strain, ATCC VR332) (Rabies virus, ERA strain (genotype 1 lyssavirus)) (UniProt P03524). Description: cell-based or functional assay.
Take B14: the ERA neutralizing antibody titer (RFFIT): EU/mg is < 0.96 EU/mg, the ERA neutralizing antibody titer (RFFIT): EU/ml is < 0.5 EU/ml, the ERA neutralizing antibody titer (RFFIT): EU/µM was < 0.02 EU/µM and the ERA neutralizing antibody titer (RFFIT): nM IC50 is > 3870 nM.

Molecule B15 yielded an ERA neutralizing antibody titer (RFFIT): EU/mg of 155 EU/mg, an ERA neutralizing antibody titer (RFFIT): EU/ml of 288 EU/ml, an ERA neutralizing antibody titer (RFFIT): EU/µM of 2.31 EU/µM and an ERA neutralizing antibody titer (RFFIT): nM IC50 of 14.4 nM.

Molecule B16 showed an ERA neutralizing antibody titer (RFFIT): EU/mg of 87.4 EU/mg, an ERA neutralizing antibody titer (RFFIT): EU/ml of 12.2 EU/ml, an ERA neutralizing antibody titer (RFFIT): EU/µM of 1.3 EU/µM and an ERA neutralizing antibody titer (RFFIT): nM IC50 of 25.6 nM.

Molecule B17 registered an ERA neutralizing antibody titer (RFFIT): EU/mg of 2.59 EU/mg, an ERA neutralizing antibody titer (RFFIT): EU/ml of 1.84 EU/ml, an ERA neutralizing antibody titer (RFFIT): EU/µM of 0.04 EU/µM and an ERA neutralizing antibody titer (RFFIT): nM IC50 of 865 nM.

Consider B18, for which the ERA neutralizing antibody titer (RFFIT): EU/mg was < 0.51 EU/mg, the ERA neutralizing antibody titer (RFFIT): EU/ml was < 0.5 EU/ml, the ERA neutralizing antibody titer (RFFIT): EU/µM was < 0.01 EU/µM and the ERA neutralizing antibody titer (RFFIT): nM IC50 is > 7300 nM.

The target of another experiment is Rabies virus glycoprotein G, strain CVS-11 (ATCC VR 959) (Rabies virus, strain CVS-11 (genotype 1)). The experiment in a line: cell-based or functional assay.
For B14, the CVS neutralizing antibody titer: IU/mg is 14.2 IU/mg and 10.1 IU/mg and 6.12 IU/mg; the CVS neutralizing antibody titer: IU/ml is 7.38 IU/ml and 5.26 IU/ml and 3.18 IU/ml; the CVS neutralizing antibody titer: IU/µM was 0.21 IU/µM and 0.15 IU/µM and 0.09 IU/µM; the CVS neutralizing antibody titer: nM IC50 is 124 nM and 196 nM and 323 nM.

Molecule B19 had a CVS neutralizing antibody titer: IU/mg of 17.8 IU/mg, a CVS neutralizing antibody titer: IU/ml of 25 IU/ml, a CVS neutralizing antibody titer: IU/µM of 0.27 IU/µM and a CVS neutralizing antibody titer: nM IC50 of 111 nM.

In the case of B15, the CVS neutralizing antibody titer: IU/mg is 65.8 IU/mg and 83.8 IU/mg and 98.3 IU/mg; the CVS neutralizing antibody titer: IU/ml was 98.6 IU/ml and 156 IU/ml and 183 IU/ml; the CVS neutralizing antibody titer: IU/µM is 0.98 IU/µM and 1.25 IU/µM and 1.47 IU/µM; the CVS neutralizing antibody titer: nM IC50 is 33.6 nM and 23.7 nM and 20.2 nM.

B16: the CVS neutralizing antibody titer: IU/mg is 30.1 IU/mg and 12.6 IU/mg; the CVS neutralizing antibody titer: IU/ml is 4.22 IU/ml and 1.76 IU/ml; the CVS neutralizing antibody titer: IU/µM is 0.45 IU/µM and 0.19 IU/µM; the CVS neutralizing antibody titer: nM IC50 was 62.5 nM and 156 nM.

Another experiment has as its target Rabies virus glycoprotein G, Challenge Virus Standard (CVS)-11 strain (Rabies virus, strain CVS-11 (genotype 1 Lyssavirus)) (UniProt O92284). Description: cell-based or functional assay.
The molecule B14 displayed a CVS-11 neutralizing antibody titer (RFFIT), IU/mg of 9.37 IU/mg; a CVS-11 neutralizing antibody titer (RFFIT), IU/ml of 4.87 IU/ml; a CVS-11 neutralizing antibody titer (RFFIT), IU/µM of 0.14 IU/µM; a CVS-11 neutralizing antibody titer (RFFIT), nM IC50 of 249 nM.

The molecule B19 displayed a CVS-11 neutralizing antibody titer (RFFIT), IU/mg of 8.17 IU/mg; a CVS-11 neutralizing antibody titer (RFFIT), IU/ml of 11.4 IU/ml; a CVS-11 neutralizing antibody titer (RFFIT), IU/µM of 0.12 IU/µM; a CVS-11 neutralizing antibody titer (RFFIT), nM IC50 of 284 nM.

Consider B15, for which the CVS-11 neutralizing antibody titer (RFFIT), IU/mg is 170 IU/mg; the CVS-11 neutralizing antibody titer (RFFIT), IU/ml was 112 IU/ml; the CVS-11 neutralizing antibody titer (RFFIT), IU/µM came out at 2.54 IU/µM; the CVS-11 neutralizing antibody titer (RFFIT), nM IC50 is 13.7 nM.

B16 gave a CVS-11 neutralizing antibody titer (RFFIT), IU/mg of 12.2 IU/mg; a CVS-11 neutralizing antibody titer (RFFIT), IU/ml of 1.71 IU/ml; a CVS-11 neutralizing antibody titer (RFFIT), IU/µM of 0.18 IU/µM; a CVS-11 neutralizing antibody titer (RFFIT), nM IC50 of 191 nM.

In turn, B17 returned a CVS-11 neutralizing antibody titer (RFFIT), IU/mg of 3.66 IU/mg; a CVS-11 neutralizing antibody titer (RFFIT), IU/ml of 2.6 IU/ml; a CVS-11 neutralizing antibody titer (RFFIT), IU/µM of 0.05 IU/µM; a CVS-11 neutralizing antibody titer (RFFIT), nM IC50 of 634 nM.

Turning to B18, the CVS-11 neutralizing antibody titer (RFFIT), IU/mg is 9.31 IU/mg; the CVS-11 neutralizing antibody titer (RFFIT), IU/ml was 9.12 IU/ml; the CVS-11 neutralizing antibody titer (RFFIT), IU/µM was 0.14 IU/µM; the CVS-11 neutralizing antibody titer (RFFIT), nM IC50 worked out at 250 nM.
